The values that follow are results of earlier work, collected in publication PMC7826847.

Read-outs that look alike come from different tables or passages of the source.

Data set [1] deals with Nectin-3 (UniProt Q9NQS3).
In data set [2] the target is Nectin-3 (UniProt Q9NQS3). This is another data set of the same source.

Sequence of Nectin-3 (Q9NQS3 58-404): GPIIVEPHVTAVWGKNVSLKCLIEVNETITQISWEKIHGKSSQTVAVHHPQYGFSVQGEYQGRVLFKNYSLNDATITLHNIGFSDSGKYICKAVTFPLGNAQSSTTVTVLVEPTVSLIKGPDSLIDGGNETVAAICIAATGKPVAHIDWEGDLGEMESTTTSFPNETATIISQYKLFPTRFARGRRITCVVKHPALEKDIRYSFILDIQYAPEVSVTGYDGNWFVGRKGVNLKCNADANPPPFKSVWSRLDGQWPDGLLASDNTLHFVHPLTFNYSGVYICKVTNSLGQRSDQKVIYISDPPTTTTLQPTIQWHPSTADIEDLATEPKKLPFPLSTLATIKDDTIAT
Sequence of Nectin-2 (Q92692 32-360): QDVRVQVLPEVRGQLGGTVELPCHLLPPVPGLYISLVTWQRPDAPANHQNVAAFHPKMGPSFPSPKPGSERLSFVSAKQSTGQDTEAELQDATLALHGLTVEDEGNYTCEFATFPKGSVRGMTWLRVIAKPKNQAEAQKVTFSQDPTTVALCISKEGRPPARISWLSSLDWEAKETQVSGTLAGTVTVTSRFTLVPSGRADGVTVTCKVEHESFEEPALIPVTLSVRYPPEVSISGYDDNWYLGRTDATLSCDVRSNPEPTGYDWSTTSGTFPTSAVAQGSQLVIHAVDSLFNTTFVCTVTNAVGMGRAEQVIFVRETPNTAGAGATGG
Sequence of Nectin-1 (Q15223 31-355): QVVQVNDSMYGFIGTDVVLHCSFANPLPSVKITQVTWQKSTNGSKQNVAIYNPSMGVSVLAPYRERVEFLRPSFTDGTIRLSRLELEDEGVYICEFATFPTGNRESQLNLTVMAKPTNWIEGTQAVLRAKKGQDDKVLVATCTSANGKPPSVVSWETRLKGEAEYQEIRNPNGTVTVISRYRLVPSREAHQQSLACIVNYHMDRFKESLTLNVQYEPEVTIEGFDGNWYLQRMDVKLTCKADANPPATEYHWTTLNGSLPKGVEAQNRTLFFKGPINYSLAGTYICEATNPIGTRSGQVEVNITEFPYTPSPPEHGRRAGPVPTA

For Nectin-1 (from UniProt Q15223), the Kd with Nectin-3 [1] was 2.3 nM.
With Nectin-2 (from UniProt Q92692), the Kd with Nectin-3 [2] was 360 nM.
